Columns and labels:
human Trop-2 [1] = biological target: T1, human Trop-2 (human, UniProt P09758 27-323); experiment: cell-based or functional assay
T1 sequence (looked up): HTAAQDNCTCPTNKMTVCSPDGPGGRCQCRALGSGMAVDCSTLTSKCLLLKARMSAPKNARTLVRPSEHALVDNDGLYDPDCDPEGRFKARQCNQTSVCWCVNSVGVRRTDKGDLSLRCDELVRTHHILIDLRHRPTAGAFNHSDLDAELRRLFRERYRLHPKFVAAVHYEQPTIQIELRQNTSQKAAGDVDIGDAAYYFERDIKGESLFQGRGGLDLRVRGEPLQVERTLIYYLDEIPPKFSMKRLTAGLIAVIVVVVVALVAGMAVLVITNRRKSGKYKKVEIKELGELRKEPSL

human Trop-2 [2] = biological target: T1, human Trop-2; experiment: cell-based or functional assay; remark: listed apart in the source
mouse CD3 = mouse CD3 (mouse, UniProt P22646 22-108); experiment: not described (data not shown)
Sequence of mouse CD3 (P22646 22-108): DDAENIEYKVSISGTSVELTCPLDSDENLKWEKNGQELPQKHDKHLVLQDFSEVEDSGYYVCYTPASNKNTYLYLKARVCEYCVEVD

mouse Trop-2 = biological target: T2, mouse Trop-2 (mouse, UniProt Q8BGV3 25-270, limits assumed); experiment: not described (data not shown)
T2 sequence (looked up): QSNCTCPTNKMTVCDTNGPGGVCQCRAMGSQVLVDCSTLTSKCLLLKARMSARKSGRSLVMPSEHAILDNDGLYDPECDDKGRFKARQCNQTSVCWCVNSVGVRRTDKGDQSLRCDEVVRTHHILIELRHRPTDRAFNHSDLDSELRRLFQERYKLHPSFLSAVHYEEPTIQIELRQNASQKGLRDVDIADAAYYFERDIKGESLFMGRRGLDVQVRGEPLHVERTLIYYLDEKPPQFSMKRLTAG

B1: (E1)-3s, anti-Trop-2 x anti-CD3 trivalent bispecific DNL complex (two CH1-DDD2-Fab-hRS7 + one scFv-AD2-Okt3) (bispecific antibody)
heavy (part 1 of 2): QVQLQQSGSELKKPGASVKVSCKASGYTFTNYGMNWVKQAPGQGLKWMGWINTYTGEPTYTDDFKGRFAFSLDTSVSTAYLQISSLKADDTAVYFCARGGFGSSYWYFDVWGQGSLVTVSS
heavy (part 2 of 2): not shown
light: DIQLTQSPSSLSASVGDRVSITCKASQDVSIAVAWYQQKPGKAPKLLIYSASYRYTGVPDRFSGSGSGTDFTLTISSLQPEDFAVYYCQQHYITPLTFGAGTKVEIK
scFv: not shown
notes: also called (E1)-35; TROP2-targeting bsAb; not shown: human CH1, first 4 hinge residues and Gly/Ser linker; human kappa constant domain
T-cell killing of BxPC3, IC50 (human Trop-2 [1]): 0.4 pM | T-cell lysis of NCI-N87, very active donor, IC50 (human Trop-2 [1]): 0.37 pM | T-cell lysis of NCI-N87, very active donor, with 0.1 nM 20*-2b, IC50 (human Trop-2 [1]): 0.05 pM | T-cell lysis of NCI-N87, very active donor, with 0.1 nM peginterferonalfa-2a, IC50 (human Trop-2 [1]): 0.14 pM | T-cell lysis of NCI-N87, very weak donor T cells, EC50 (human Trop-2 [1]): 39 pM | T-cell lysis of NCI-N87, very weak donor T cells, with peginterferonalfa-2a, EC50 (human Trop-2 [1]): 1.4 pM | T-cell mediated lysis of Capan-1, IC50 (human Trop-2 [1]): 29 pM | T-cell mediated lysis of NCI-N87, IC50 (human Trop-2 [1]): 0.85 pM | ex vivo T cell redirected killing of BxPC3, donor 1, IC50 (human Trop-2 [2]): 1.06 pM | ex vivo T cell redirected killing of BxPC3, donor 2, IC50 (human Trop-2 [2]): 0.56 pM | ex vivo T cell redirected killing of BxPC3, donor 3, IC50 (human Trop-2 [2]): 0.32 pM | ex vivo T cell redirected killing of Capan-1, donor 1, IC50 (human Trop-2 [2]): 35.6 pM | ex vivo T cell redirected killing of Capan-1, donor 2, IC50 (human Trop-2 [2]): 248 pM | ex vivo T cell redirected killing of Capan-1, donor 4, IC50 (human Trop-2 [2]): 8.51 pM | ex vivo T cell redirected killing of NCI-N87, donor 1, IC50 (human Trop-2 [2]): 6.76 pM | ex vivo T cell redirected killing of NCI-N87, donor 2, IC50 (human Trop-2 [2]): 34 pM | binding result (mouse CD3): no binding | binding result (mouse Trop-2): no binding
